Experimental data: PMC3899939, “IpsA, a novel LacI-type regulator, is required for inositol-derived lipid formation in Corynebacteria and Mycobacteria” (BMC Biology, 2013)

T1: IpsA (Cg2910) (Corynebacterium glutamicum, UniProt Q8NMF0)
T1 construct: C-terminal STREP-tag variant (pAN6-ipsA-STREP), expressed in E. coli BL21(DE3), StrepTactin and gel filtration; 79 kDa, dimer
T1 sequence (Q8NMF0 1-358): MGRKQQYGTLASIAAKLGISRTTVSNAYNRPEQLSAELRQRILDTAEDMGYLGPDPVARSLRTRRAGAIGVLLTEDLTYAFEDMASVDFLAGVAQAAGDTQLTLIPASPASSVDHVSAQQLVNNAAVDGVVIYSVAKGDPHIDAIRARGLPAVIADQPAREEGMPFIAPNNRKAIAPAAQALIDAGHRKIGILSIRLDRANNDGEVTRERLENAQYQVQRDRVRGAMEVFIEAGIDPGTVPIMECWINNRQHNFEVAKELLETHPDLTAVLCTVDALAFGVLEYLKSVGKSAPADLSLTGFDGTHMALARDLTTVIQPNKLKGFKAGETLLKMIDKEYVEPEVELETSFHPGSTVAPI

T2: IpsA-Strep (Corynebacterium glutamicum ATCC 13032, UniProt Q8NMF0 1-358)
T2 sequence: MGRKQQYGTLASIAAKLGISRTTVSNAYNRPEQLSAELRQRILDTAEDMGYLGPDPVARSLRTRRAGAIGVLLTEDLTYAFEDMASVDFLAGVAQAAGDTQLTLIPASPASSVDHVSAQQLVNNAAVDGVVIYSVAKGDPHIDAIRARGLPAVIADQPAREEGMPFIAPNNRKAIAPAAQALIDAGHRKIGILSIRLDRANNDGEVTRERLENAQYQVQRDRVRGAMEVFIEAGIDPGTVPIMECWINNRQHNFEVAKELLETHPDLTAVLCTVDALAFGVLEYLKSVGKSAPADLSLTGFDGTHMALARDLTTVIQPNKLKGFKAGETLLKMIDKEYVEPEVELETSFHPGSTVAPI

B1: cg3323 M5 (dsDNA)
DNA 1: TTGAGTTGCTTGATCGATACTGTCTGATTT
DNA 2: AAATCAGACAGTATCGATCAAGCAACTCAA
B2: cg3323 WT 30-mer (dsDNA)
DNA 1: TTGAGTTGCTTGATCGATCAGGTCTGATTT
DNA 2: AAATCAGACCTGATCGATCAAGCAACTCAA
B3: cg3323 M3 (dsDNA)
DNA 1: TTGAGTTGCTTGCGAGATCAGGTCTGATTT
DNA 2: AAATCAGACCTGATCTCGCAAGCAACTCAA
B4: cg3323 M4 (dsDNA)
DNA 1: TTGAGTTGCTTGATCTCGCAGGTCTGATTT
DNA 2: AAATCAGACCTGCGAGATCAAGCAACTCAA

Columns and labels:
IpsA (Cg2910) = biological target: T1, IpsA (Cg2910); experiment: EMSA, dissociation of IpsA-DNA complex (ino1 promoter); type: binding; details: effector; IpsA preincubated 20 min with effector, then DNA; 50 mM Tris-HCl pH 7.5, 40 mM KCl, 5 mM MgCl2, room temperature
IpsA-Strep = biological target: T2, IpsA-Strep; experiment: EMSA; EMSA: 50 mM Tris-HCl pH 7.5, 40 mM KCl, 5 mM MgCl2, room temperature, 10 uL, DNA 0.028-1 uM, 10-15% native PAGE; details: protein: recombinant; tags: C-terminal STREP-tag; chain copies: 2; blunt

| Molecule | lowest concentration with observed effect (IpsA (Cg2910)) [mM] | binding result (IpsA-Strep) |
| --- | --- | --- |
| O[C@H]1[C@H](O)[C@@H](O)[C@H](O)[C@@H](O)[C@H]1O [myo-I, myo-inositol] | 0.2 | – |
| B1 | – | binds |
| B2 | – | binds |
| B3 | – | no binding |
| B4 | – | no binding |
